Results from the Human Domainome abundance scans (Beltran et al. 2025).
± gives the uncertainty stated by the source.

B1: SH3 and PX domain-containing protein 2B, residues 155 to 209; numbered along this chain, A1X283 (parent)
chain: EQYVVVANYQKQESSEISLSVGQVVDIIEKNESGWWFVSTAEEQGWVPATCLEGQ
B2: Intersectin-1, residues 1156 to 1213; numbered along this chain, Q15811 (parent)
chain: AVCQVIGMYDYTAQNDDELAFNKGQIINVLNKEDPDWWKGEVNGQVGLFPSNYVKLTT

Variants of: B1
Experiment: abundance fitness (aPCA) (normalised: wild type 0, dead -1); higher = more abundant; growth selection in yeast, the domain comes from the species named
Conditions: Homo sapiens

Row | Variant | abundance fitness
1 | S39W | -0.371 ± 0.09
2 | S39V | -0.414 ± 0.1
3 | S39Y | -0.312 ± 0.14
4 | S39I | -0.297 ± 0.11
5 | W36T | -0.234 ± 0.098
6 | W36G | -0.767 ± 0.085
7 | W36L | -0.2 ± 0.078
8 | W36H | -0.429 ± 0.17
9 | W36M | -0.202 ± 0.13
10 | Q12I | -0.19 ± 0.14
11 | Q12G | -0.14 ± 0.074
12 | G34S | -0.208 ± 0.083
13 | G34M | -0.216 ± 0.1
14 | G34A | -0.189 ± 0.075
15 | G34E | -0.147 ± 0.081
16 | G34V | -0.676 ± 0.11
17 | G34Q | -0.458 ± 0.2
18 | G34K | -0.169 ± 0.14
19 | E53I | -0.289 ± 0.15
20 | E53G | -0.008 ± 0.083
21 | E53H | -0.138 ± 0.13
22 | E53S | -0.05 ± 0.083
23 | E53M | -0.144 ± 0.1
24 | E53D | -0.073 ± 0.12
25 | E53A | -0.014 ± 0.07

Row | Variant | abundance fitness
26 | E53C | -0.14 ± 0.12
27 | D26E | -0.112 ± 0.11
28 | D26P | -0.928 ± 0.27
29 | D26M | -0.134 ± 0.24
30 | D26L | -0.078 ± 0.093
31 | D26Q | -0.052 ± 0.22
32 | D26Y | -0.272 ± 0.18
33 | D26I | -0.508 ± 0.22
34 | T50P | -0.134 ± 0.16
35 | T50E | -0.096 ± 0.14
36 | T50W | 0.049 ± 0.12
37 | T50N | -0.159 ± 0.14
38 | T50D | -0.093 ± 0.16
39 | T50H | -0.299 ± 0.18
40 | T50R | -0.023 ± 0.082
41 | E1K | 0.042 ± 0.16
42 | E1M | -0.329 ± 0.24
43 | E1G | -0.315 ± 0.098
44 | Q10K | -0.192 ± 0.15
45 | Q10E | 0.125 ± 0.11
46 | Q10F | -0.257 ± 0.27
47 | Q10A | 0.003 ± 0.087
48 | Q10R | -0.071 ± 0.096
49 | Q10I | -0.128 ± 0.17
50 | Q10H | -0.145 ± 0.21

Row | Variant | abundance fitness
51 | A41D | -0.273 ± 0.13
52 | A41H | -0.009 ± 0.1
53 | A41M | -0.084 ± 0.11
54 | A41G | -0.122 ± 0.077
55 | P48C | -0.614 ± 0.15
56 | P48R | -0.306 ± 0.068
57 | P48Y | -1.03 ± 0.32
58 | P48F | -0.998 ± 0.34
59 | P48D | -0.252 ± 0.2
60 | P48L | -0.455 ± 0.1
61 | P48E | -0.522 ± 0.18
62 | P48N | -0.492 ± 0.11
63 | A49V | -0.207 ± 0.076
64 | A49E | -0.273 ± 0.15
65 | A49D | -0.214 ± 0.12
66 | A49Y | -0.237 ± 0.16
67 | A49C | 0.045 ± 0.14
68 | E42M | -0.048 ± 0.13
69 | E42H | 0.063 ± 0.37
70 | E42G | -0.037 ± 0.061
71 | E42I | -0.387 ± 0.14
72 | S18I | -0.528 ± 0.24
73 | S18F | -0.157 ± 0.42

Variants of: B2
Experiment: as above
Conditions: Homo sapiens

Row | Variant | abundance fitness
74 | A1E | -0.082 ± 0.17
75 | A1R | -0.1 ± 0.35
76 | A1V | -0.068 ± 0.18
77 | A1S | 0.127 ± 0.43
78 | A1T | -0.213 ± 0.23
79 | A1D | -0.322 ± 0.37
80 | V2C | -0.357 ± 0.18
81 | V2A | -0.492 ± 0.15
82 | V2F | -0.268 ± 0.18
83 | V2D | -0.142 ± 0.21
84 | V2E | -0.074 ± 0.17
